Measured values as given in the Immune Epitope Database (IEDB).

Tests used:
HLA-A*23:01 = experiment: IEDB peptide-MHC binding, purified MHC/competitive/radioactivity; filed as Kd, often an IC50 or EC50 that approximates it; ≥ and ≤ were set here for values at or beyond the usual limits of such assays
HLA-A*24:02 [1] = experiment: as above
HLA-A*29:02 = experiment: as above
HLA-A*26:01 = experiment: as above
HLA-A*30:02 = experiment: as above
HLA-A*01:01 = experiment: as above
HLA-B*15:01 [2] = experiment: as above
HLA-A*24:02 [3] = experiment: IEDB peptide-MHC binding, purified MHC/competitive/fluorescence; ≥ and ≤ were set here for values at or beyond the usual limits of such assays
HLA-A*02:01 = experiment: as above
HLA-A*32:01 = experiment: IEDB peptide-MHC binding, purified MHC/competitive/radioactivity; filed as Kd, often an IC50 or EC50 that approximates it; ≥ and ≤ were set here for values at or beyond the usual limits of such assays
HLA-B*15:01 [4] = experiment: IEDB peptide-MHC binding, purified MHC/competitive/fluorescence; filed as Kd, often an IC50 or EC50 that approximates it; ≥ and ≤ were set here for values at or beyond the usual limits of such assays; settings: source organism: Bacillus cereus G9241
HLA-A*30:01 = experiment: IEDB peptide-MHC binding, purified MHC/competitive/radioactivity; filed as Kd, often an IC50 or EC50 that approximates it; ≥ and ≤ were set here for values at or beyond the usual limits of such assays
[5] = source organism: SARS coronavirus Tor2
[6] = source organism: Dengue virus 3 Martinique/1243/1999
[7] = source organism: Vaccinia virus WR
[8] = source organism: Mammarenavirus machupoense
[9] = source organism: Zaire ebolavirus
[10] = source organism: Triticum aestivum
[11] = source organism: Lymphocytic choriomeningitis virus (strain Armstrong)
[12] = source organism: Mammarenavirus brazilense
[13] = source organism: Sudan ebolavirus
[14] = source organism: Mammarenavirus lassaense
[15] = source organism: Lassa virus Josiah
[16] = source organism: Mammarenavirus choriomeningitidis

LMANLAPHL showed a Kd (HLA-A*23:01; [5]) of 11.8 µM, a Kd (HLA-A*24:02 [1]; [5]) of at least 31.2 µM and a Kd (HLA-A*29:02; [5]) of 3650 nM. For the same sequence, the Kd (HLA-A*26:01; [5]) was at least 77.9 µM, the Kd (HLA-A*30:02; [5]) was 12000 nM and the Kd (HLA-A*01:01; [5]) was 6080 nM.

LMILLTGGAM showed a Kd (HLA-B*15:01 [2]; [6]) of 2.91 nM.

For LQHILIEYM, the Kd (HLA-B*15:01 [2]; [7]) was 1220 nM.

In the case of LSSGEPHCA, the Kd (HLA-A*23:01; [8]) is reported as at least 48 µM, the Kd (HLA-A*24:02 [1]; [8]) is reported as at least 77.5 µM and the Kd (HLA-A*29:02; [8]) is reported as at least 78900 nM. For the same sequence, the Kd (HLA-A*26:01; [8]) was at least 77.9 µM, the Kd (HLA-A*30:02; [8]) was 4600 nM and the Kd (HLA-A*01:01; [8]) was 4360 nM.

In the case of LTALRLCAY, the Kd (HLA-A*23:01; [5]) is reported as 7.11 µM, the Kd (HLA-A*24:02 [1]; [5]) is reported as at least 35.3 µM and the Kd (HLA-A*29:02; [5]) is reported as 136 nM. It also gave a Kd (HLA-A*26:01; [5]) of 0.961 µM, a Kd (HLA-A*30:02; [5]) of 54.5 nM and a Kd (HLA-A*01:01; [5]) of 7.86 nM.

With LVVGEKACL the IC50 (HLA-A*24:02 [3]; [9]) was at least 139 µM and the IC50 (HLA-A*02:01; [9]) was at least 115 µM.

With LYKLMGHFSW the Kd (HLA-A*23:01; [5]) was 0.0896 µM, the Kd (HLA-A*24:02 [1]; [5]) was 0.0831 µM and the Kd (HLA-A*29:02; [5]) was 8090 nM. It also gave a Kd (HLA-A*26:01; [5]) of at least 20 µM, a Kd (HLA-A*30:02; [5]) of 17100 nM and a Kd (HLA-A*01:01; [5]) of 18400 nM.

LYPNVCIFG showed an IC50 (HLA-A*24:02 [3]; source organism: Vaccinia virus) of 0.0716 µM.

MWLSYFVASF gave a Kd (HLA-A*23:01; [5]) of 0.000257 µM, a Kd (HLA-A*24:02 [1]; [5]) of 0.0154 µM and a Kd (HLA-A*29:02; [5]) of 38.5 nM. For the same sequence, the Kd (HLA-A*26:01; [5]) was 0.142 µM, the Kd (HLA-A*30:02; [5]) was 2400 nM and the Kd (HLA-A*01:01; [5]) was 1140 nM.

Sequence NLSGVNNLE has an IC50 (HLA-A*24:02 [3]; [9]) of at least 86.4 µM and an IC50 (HLA-A*02:01; [9]) of at least 227 µM.

NMRDLIVTF gave a Kd (HLA-B*15:01 [2]; [7]) of 8.26 nM.

NSIEYILSF gave a Kd (HLA-B*15:01 [2]; [7]) of 2260 nM.

QYPLGQGSF showed a Kd (HLA-A*23:01; [10]) of 8.09 µM, a Kd (HLA-A*24:02 [1]; [10]) of 1.45 µM and a Kd (HLA-A*29:02; [10]) of at least 22900 nM. For the same sequence, the Kd (HLA-A*26:01; [10]) was at least 77.9 µM, the Kd (HLA-A*30:02; [10]) was 1460 nM and the Kd (HLA-A*01:01; [10]) was at least 71000 nM.

For RIFFGKTSI, the Kd (HLA-A*32:01; [7]) was 1.32 nM.

RISRFANLI was tested, and the Kd (HLA-A*32:01; [7]) was 6.23 nM.

RLRGEQRKTF showed a Kd (HLA-B*15:01 [2]; source organism: Dengue virus 4 Philippines/H241/1956) of 24.4 nM.

With RMNAVSTIL the Kd (HLA-B*15:01 [4]) was 82.7 nM.

For RYQATGFGT, the IC50 (HLA-A*24:02 [3]; [9]) was at least 99.3 µM and the IC50 (HLA-A*02:01; [9]) was at least 226 µM.

SLSLISHVV was tested, and the Kd (HLA-A*23:01; [11]) was at least 77.7 µM, the Kd (HLA-A*24:02 [1]; [11]) was at least 77.5 µM and the Kd (HLA-A*29:02; [11]) was at least 60400 nM. For the same sequence, the Kd (HLA-A*26:01; [11]) was at least 77.9 µM, the Kd (HLA-A*30:02; [11]) was 1440 nM and the Kd (HLA-A*01:01; [11]) was at least 44700 nM.

SLTEEFYHSY gave a Kd (HLA-A*32:01; [12]) of at least 26100 nM, a Kd (HLA-A*29:02; [12]) of 1440 nM and a Kd (HLA-A*26:01; [12]) of 3.41 µM. The Kd (HLA-A*30:02; [12]) was 225 nM, the Kd (HLA-A*30:01; [12]) was at least 58500 nM and the Kd (HLA-A*01:01; [12]) was 129 nM.

In the case of SNTTGRLIW, the IC50 (HLA-A*24:02 [3]; [13]) is reported as 3.61 µM.

Work on STAPSSPPPY yielded a Kd (HLA-A*32:01; [11]) of 9400 nM, a Kd (HLA-A*29:02; [11]) of 2690 nM and a Kd (HLA-A*26:01; [11]) of 8.26 µM. The Kd (HLA-A*30:02; [11]) was 1520 nM, the Kd (HLA-A*30:01; [11]) was 344 nM and the Kd (HLA-A*01:01; [11]) was 34 nM.

STSQKSIVAY was tested, and the Kd (HLA-A*23:01; [5]) was at least 70 µM, the Kd (HLA-A*24:02 [1]; [5]) was at least 70.3 µM and the Kd (HLA-A*29:02; [5]) was 44.5 nM. The Kd (HLA-A*26:01; [5]) was 0.79 µM, the Kd (HLA-A*30:02; [5]) was 17.1 nM and the Kd (HLA-A*01:01; [5]) was 534 nM.

Work on VEIALYQPI yielded a Kd (HLA-A*23:01; [14]) of 1.48 µM, a Kd (HLA-A*24:02 [1]; [14]) of at least 38 µM and a Kd (HLA-A*29:02; [14]) of at least 78900 nM. For the same sequence, the Kd (HLA-A*26:01; [14]) was at least 77.9 µM, the Kd (HLA-A*30:02; [14]) was at least 40100 nM and the Kd (HLA-A*01:01; [14]) was at least 78100 nM.

VFRTSTPRVV showed a Kd (HLA-A*23:01; [15]) of at least 70 µM, a Kd (HLA-A*24:02 [1]; [15]) of at least 70.3 µM and a Kd (HLA-A*29:02; [15]) of at least 71400 nM. The Kd (HLA-A*26:01; [15]) was at least 69.7 µM, the Kd (HLA-A*30:02; [15]) was 6350 nM and the Kd (HLA-A*01:01; [15]) was at least 70400 nM.

VISDLFPSF was tested, and the Kd (HLA-B*15:01 [2]; [7]) was 210 nM.

Sequence VQKEGVFHTM has a Kd (HLA-B*15:01 [2]; [6]) of 24.2 nM.

Sequence VTAETQNSSF has a Kd (HLA-A*26:01; [6]) of at least 20.4 µM, a Kd (HLA-B*15:01 [2]; [6]) of 25.9 nM and a Kd (HLA-A*01:01; [6]) of 16200 nM.

Work on VTDVTLLMA yielded a Kd (HLA-A*23:01; [12]) of 18.2 µM, a Kd (HLA-A*24:02 [1]; [12]) of at least 77.5 µM and a Kd (HLA-A*29:02; [12]) of at least 23400 nM. The Kd (HLA-A*26:01; [12]) was at least 77.9 µM, the Kd (HLA-A*30:02; [12]) was 423 nM and the Kd (HLA-A*01:01; [12]) was 8.7 nM.

WCSQTNYQY was tested, and the Kd (HLA-A*23:01; [16]) was at least 77.7 µM, the Kd (HLA-A*24:02 [1]; [16]) was at least 77.5 µM and the Kd (HLA-A*29:02; [16]) was 204 nM. For the same sequence, the Kd (HLA-A*26:01; [16]) was at least 77.9 µM, the Kd (HLA-A*30:02; [16]) was 734 nM and the Kd (HLA-A*01:01; [16]) was 964 nM.

WLPMTVAAM showed a Kd (HLA-B*15:01 [2]; source organism: Dengue virus 3 Sri Lanka/1266/2000) of 177 nM.

Work on YLEYEIENF yielded an IC50 (HLA-A*24:02 [3]; [13]) of 17.3 µM and an IC50 (HLA-A*02:01; [13]) of 42.6 µM.
